Reference: the RNAGym collection of RNA variant scans (doi:10.1093/molbev/msab373)

B1: Azoarcus group I ribozyme (parent)
chain: GUGCCUUGCGCCGGGAAACCACGCAAGGGAUGGUGUCAAAUUCGGCGAAACCUAAGCGCCCGCCCGGGCGUAUGGCAACGCCGAGCCAAGCUUCGGCGCCUGCGCCGAUGAAGGUGUAGAGACUAGACGGCACCCACCUAAGGCAAACGCUAUGGUGAAGGCAUAGUCCAGGGAGUGGCGAAAGUCACACAAACCGG

Variants of: B1
Assay: reverse-splicing fitness (ratio to wild type); higher = more active; in vitro selection; Mg2+ level not given
In short: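 An in vitro group I ribozyme library with randomized positions was T7-transcribed and gel-purified. In triplicate, 10 pmol RNA in EPPS pH 7.5 was reacted with 50 pmoles of a 30-nt RNA substrate for 1 h at 37 °C across several added MgCl2 levels (1–48 mM), then stopped with EDTA. Products were reverse transcribed from a substrate-complementary primer, PCR-amplified and sequenced (HiSeq 4000). Fitness is a variant's read proportion after selection over that before, normalised to wild type.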

In order of rising reverse-splicing fitness:
1. C82G A111U A120U A145G C169G U176G  0.00172
2. C82G A111U A120U A145U C150A C169G U176G  0.00186
3. C82G A111U A120U A145U C150A C169U U176G  0.00195
4. C82G A111U A120U A145G C169A U176G  0.00196
5. C82G A111U A120U A145G C169U U176G  0.00203
6. C82G A111U A120U A145U C150A C169A U176G  0.00209
7. C82G A111U A120U A145U C150G C169G U176G  0.0021
8. C82G A111U A120U A145U C150A C169A  0.00224
9. C82G A111U A120U A145U C150G C169A U176G  0.00233
10. C82G A111U A120U A145U C150G C169A U176C  0.00246
11. C82G A111U A120U A145U C150G U176G  0.00246
12. C82G A111U A120U A145U C150U C169A U176G  0.00252
13. C82G A111U A120U A145U C150A C169A U176C  0.00255
14. C82G A111U A120U A145U C150A C169U  0.00264
15. C82G A111U A120U A145G C150U C169G U176G  0.00266
16. C82G A111U A120U A145U C150U C169A U176C  0.0027
17. C82G A111U A120U A145G C150U C169A U176G  0.00276
18. C82G A111U A120U A145U C150A C169U U176C  0.00276
19. C82G A111U A120U A145U C150G C169G U176C  0.00282
20. C82G A111U A120U A145U C150U C169A U176A  0.00283
21. C82G A111U A120U A145U C150G C169U U176A  0.00286
22. C82G A111U A120U A145U C150G C169U U176G  0.00286
23. C82G A111U A120U A145U C150U C169G U176C  0.00287
24. C82G A111U A120U A145U C150A C169G  0.00289
25. C82G A111U A120U A145U C150G C169U U176C  0.0029
26. C82G A111U A120U A145U C150A U176G  0.00291
27. C82G A111U A120U A145U C150A C169G U176C  0.003
28. C82G A111U A120U A145G C150U C169U U176G  0.00302
29. C82G A111U A120U A145U C150G C169G U176A  0.0031
30. C82G A111U A120U A145U C150A C169U U176A  0.00313
31. C82G A111U A120U A145U C150G C169U  0.0032
32. C82G A111U A120U A145U C150U C169A  0.00323
33. C82G A111U A120U A145U C150U C169G  0.00327
34. C82G A111U A120U A145U C150A C169G U176A  0.00335
35. C82G A111U A120U A145U C150G C169G  0.00336
36. C82G A111U A120U A145G U176G  0.00338
37. C82G A111U A120U A145U C150G C169A U176A  0.00343
38. C82G A111U A120U A145U C150U C169G U176A  0.00344
39. C82G A111U A120U A145U C150A C169A U176A  0.00349
40. C82G A111U A120U A145U C150G C169A  0.00362
41. C82G A111U A120U A145U C150G U176A  0.00373
42. C82G A111U A120U A145G C169U U176A  0.00386
43. C82G A111U A120U A145G C150G C169U U176G  0.00391
44. C82G A111U A120U A145G C169U U176C  0.004
45. C82G A111U A120U A145G C150G C169G U176G  0.00407
46. C82G A111U A120U A145G C150U U176G  0.00433
47. C82G A111U A120U A145G C150U C169A U176C  0.00451
48. C82G A111U A120U A145U C150A U176A  0.00457
49. C82G A111U A120U A145G C169A  0.00459
50. C82G A111U A120U A145G C150G U176G  0.00462
51. C82G A111U A120U A145G C169G  0.00479
52. C82G A111U A120U A145G C169U  0.00483
53. C82G A111U A120U A145G C150U C169U U176C  0.00501
54. C82G A111U A120U A145G C150G C169A U176G  0.00502
55. C82G A111U A120U A145G C169G U176C  0.00515
56. C82G A111U A120U A145G C150U C169U U176A  0.00518
57. C82G A111U A120U A145U C150A U176C  0.00518
58. C82G A111U A120U A145G C169A U176C  0.00529
59. C82G A111U A120U A145G C169G U176A  0.00533
60. C82G A111U A120U A145G C169A U176A  0.00574
61. C82G A111U A120U A145G C150U C169G U176C  0.00575
62. C82G A111U A120U A145G C150G C169G U176C  0.00596
63. C82G A111U A120U A145U C150G U176C  0.006
64. C82G A111U A120U A145G C150U C169G  0.00641
65. C82G A111U A120U A145G C150G U176A  0.00648
66. C82G A111U A120U A145G C150U C169U  0.00655
67. C82G A111U A120U A145G C150U C169A  0.00699
68. C82G A111U A120U A145G C150G C169G  0.00714
69. C82G A111U A120U A145G C150G C169U U176C  0.00721
70. C82G A111U A120U A145U C150A  0.00721
71. C82G A111U A120U A145G C150G C169U U176A  0.0076
72. C82G A111U A120U A145G C150G C169U  0.00767
73. C82G A111U A120U A145U C150G  0.00782
74. C82G A111U A120U A145G C150U C169A U176A  0.0082
75. C82G A111U A120U A145G C150U C169G U176A  0.00833
76. C82G A111U A120U A145G C150G U176C  0.00861
77. C82G A111U A120U A145G C150G C169G U176A  0.00963
78. C82G A111U A120U A145G C150U U176A  0.0103
79. C82G A111U A120U A145G U176A  0.0121
80. C82G A111U A120U A145G C150U U176C  0.0151
81. C82G A111U A120U A145G U176C  0.0173
82. C82G A111U A120U A145U C150U  0.0274
83. C82G A111U A120U A145G C150U  0.0351
84. C82G A111U A120U A145U  0.0429
